The source of these data is the nanobody polyreactivity screen of Harvey et al. (2022).

The data set can be described thus: yeast display, Sf9 membrane polyspecificity reagent, FACS + sequencing; frameworks hold sequencing errors. The essentials:
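Using colony PCR, genes from sorted yeast display clones were amplified, then sequenced on MiSeq at 2 × 250 and filtered by CDR length. The clones had been stained with 10% biotinylated, detergent-solubilized Sf9 membrane reagent for 1 hour at 4 °C and sorted by FACS into low and high (top ~1%) gates on anti-HA and streptavidin fluorescence. Polyreactivity labels come from the gate of origin.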
Turning to “QVQLVESGGGLVQAGGSLRLSCAASGRIFSVYARGWYRQAPGKERELVAAITWTGGRTYYADSVKGRFTISRDNAKNTVYLQMNSLKPEDTAVYYCAAQWVRSYQMYWGQGTQVTVSS”, the “polyreactivity (PSR sort gate)” value is reported as “high polyreactivity”.
Under “QVQLVESGGGLVQAGGSLRLSCAASGRIFSWNAMGWYRQAPGKERELVAAISSGGSTIYADSVKGRFTISRDNAKNTVYLQMNSLKPEYTAVYYCATRNGYSGTYGYWGQGTQVTVSS” stands “low polyreactivity”; under “QVQLVESGGGLVQAGGSLRLSCAASGRIFSYAMGWYRQAPGKEREFVAAIRWSGGRTYYADSVKGRFTISRDNAKNTVYLQMNSLKPEDTAVYYCARQGYTLYRTRYRYDYWGQGTQVTVSS”, “high polyreactivity”.
In the case of “QVQLVESGGGLVQAGGSLRLSCAASGRIFSYAMGWYRQAPGKERELVAAITRRGSTYYADSVKGRFTISRDNAKNTVYLQMKSLKPEDTAVYYCAADIYYSRTFYPMGYWGQGTQVTVSS” it was “high polyreactivity”; in that of “QVQLVESGGGLVQAGGSLRLSCAASGRIFSYNAMGWYRQAPGKERELVAAISYSGGRTYYADSVKGRFTISRDNAKNTVYLQMNSLKPEDTAVYYCAAAYGGSLRYTAGYYWGQGTQVTVSS”, “high polyreactivity”; in that of “QVQLVESGGGLVQAGGSLRLSCAASGRIFSYNAMGWYRQAPGKERELVAAITGGGSTNYADSVKGRFTISRDNAKNTVYLQMNSLKAEDTAVYYCAARSWSYKYWGQGTQVTVSS”, “high polyreactivity”.
In the case of “QVQLVESGGGLVQAGGSLRLSCAASGRIFSYNAMGWYRQAPGKERELVAAITSSGSTYADSVKVRFTISRDNAKNTVYLQMNSLKPEDTAVYYCASYYNWSGHYYWGQGTQVTVSS” it was “low polyreactivity”; in that of “QVQLVESGGGLVQAGGSLRLSCAASGRIFSYNAMGWYRQAPGQERELVASISGRGVITYYADSVKGRFTISRDNAKNTVYLQMNSLKPEDTAVYYCNARYIYTRPRPRNYWGQGTQVTVSS”, “high polyreactivity”; in that of “QVQLVESGGGLVQAGGSLRLSCAASGRIFSYYAMGWYRPAPGTERELVAAITRAGGTNYADSVKGRFTISRDNAKNTVYLQMNSVKPEDTAVYYCAADRSRYRYNAPRYAYDYWGQGTQVTVSS”, “high polyreactivity”.
For the sequence “QVQLVESGGGLVQAGGSLRLSCAASGRIFSYYAMGWYRQAPGKERELVAAINWSGGSTYYADSVKGRFTISRDNAKNTVYLQMNSLKPEDTAVYYCAVDWTSAYGTYYYTPYDSWGQGTQVTVSS”, the “polyreactivity (PSR sort gate)” value is listed as “low polyreactivity”.
Under “QVQLVESGGGLVQAGGSLRLSCAASGRIFSYYAMGWYRQAPGKERELVAAISRSGGRTYYADSVKGRFTISRDNAKNTVYLQMNSLKPEDTAVYYCAALQRDYSGRYPVSMYYWGQGTQVTVSS” stands “high polyreactivity”; under “QVQLVESGGGLVQAGGSLRLSCAASGRIFSYYAMGWYRQAPGKERELVAAISRTGGRTYYADSVKGRFTISRDNAKNTVYLQKNSLKPEDTAVYYCNVVGRRYWHWDQALDYWGQGTQVTVSS”, “high polyreactivity”; under “QVQLVESGGGLVQAGGSLRLSCAASGRIFSYYAMGWYRQAPGKERELVAAISSSGGSTYYADSVKGRFTISRDNAKNTVYLQMNSLKPEDTAVYYCAKLQYGFGRYGYWGQGTQVTVSS”, “high polyreactivity”.
Under “QVQLVESGGGLVQAGGSLRLSCAASGRIFSYYAMGWYRQAPGKERELVAGIRSGCSTNYADSVKGRFTISRDNAKNTVYLQMNSLKPEDTAVYYCAARYFKFYSKGSFRYLYESWGQGTQVTVSS” stands “high polyreactivity”; under “QVQLVESGGGLVQAGGSLRLSCAASGRIFSYYAMGWYRQAPGKERELVASISRGSSTYYADSVKGRFTISRDNAKNTVYLQMNSLKPEDTAVYYCARQWLGYPYTTYTGSPVEGYGYWGQGTQVTVSS”, “high polyreactivity”.
In the case of “QVQLVESGGGLVQAGGSLRLSCAASGRIFSYYAMGWYRQAPGKERELVASITSGGSTYADSVKGRCTISRDSAKNTVYLQMNSLKREDTAVYYCAAGGKRRWPRKHYGYWGQGSQVTVSS” it was “high polyreactivity”; in that of “QVQLVESGGGLVQAGGSLRLSCAASGRIFSYYAMGWYRQAPGKERELVATINWRADTYYADSVKGRFTISRDNAKKTVYLQMNSLKPEDSAVYYCAKRPRPTDKYDYWGQGTQVTVSS”, “high polyreactivity”; in that of “QVQLVESGGGLVQAGGSLRLSCAASGRIFSYYAMGWYRQAPGKERELVATISYSGGSTYYADSVKGRFTISRDNAKNTVYLQMNSLKPEDTAVYYCAATRYPYYSFVRFPSRRFNYWGQGTQVTVSS”, “high polyreactivity”.
Turning to “QVQLVESGGGLVQAGGSLRLSCAASGRIFSYYAMGWYRQAPGKERELVAVISRRGDNTYYADSVKGRFTISRDNAKNTVYLQMNSLKPEDTEVFYCAAYSWYAKDFDYWGQGTQVTVSS”, the “polyreactivity (PSR sort gate)” value is recorded as “high polyreactivity”.
Under “QVQLVESGGGLVQAGGSLRLSCAASGRIFSYYDMGWYRQAPGKERELVAAITWRGGSTYYADSVKGRFTISRDNAKNTVYLQMNSLKPEDTAVYYCAADWYPSIWEYDYWGQGSQVTVSS” stands “low polyreactivity”.
Under “QVQLVESGGGLVQAGGSLRLSCAASGRIFSYYGMGWYRQAPGKERELVAAISTGGNTNYADSLKGRFTISRDNAKNTVYLQMNSLKPEDTAVYYCAAGFPYKFTYVCGYNHWGQGTQVTVSS” stands “low polyreactivity”; under “QVQLVESGGGLVQAGGSLRLSCAASGRIFTAYYAMGWYRQAPGKERELVASISSSGTSTYADSVKGRFTISRDNAKNTVYLQMNSLKPEDTAVYYCATRKLRTRRYDYGYWGQGTQVNVSS”, “low polyreactivity”.
Under “QVQLVESGGGLVQAGGSLRLSCAASGRIFTDNVMGWYRQAPGKERELVAAITRRGGSTYYADSVKGRFTISRDNAKNTVYLQMNSLKPEDSAVYYCNARGRLYGHLYDYWGQGTQVTVSS” stands “low polyreactivity”; under “QVQLVESGGGLVQAGGSLRLSCAASGRIFTFYAMGWYRQAPGKERELVATIRNGGSTNYADSVKGRFTISRDNAKNTVYLQMNSLKPEDTAVYYCNTYYYGRRRYGYWGQGTQVTVSS”, “high polyreactivity”.
As to “QVQLVESGGGLVQAGGSLRLSCAASGRIFTGNAMGWYRQAPGTERELVAAITKSGGSTYYADSVKGRFTISRDNAKNTVYLQMNSLKPEDTAVYYCAATRYLHYVYKYGYWGQGTQVTVSS”, the “polyreactivity (PSR sort gate)” value is “high polyreactivity”.
Under “QVQLVESGGGLVQAGGSLRLSCAASGRIFTGNSMGWYRQAPGKERELVAAITSSGGSTYYADSVKGRFTISRDNAKNTVYLQMNSLKPDDTAVYYCAALYSSWWSWYYYWGQGTQVTVSS” stands “high polyreactivity”; under “QVQLVESGGGLVQAGGSLRLSCAASGRIFTGNVMGWYRQAPGKERELFAAISYGGGSTNYADSVKGRFTISRDNAKNTVYLQMNSLKPEDTAVYYCAAGIKRYLSYYTRYGYWGQGTQVTVSS”, “high polyreactivity”; under “QVQLVESGGGLVQAGGSLRLSCAASGRIFTGNVMGWYRQAPGKERELVAAITYRGGSTYYADSVKGRFTISRDNAKNTVYLQMHSLKPEDTAVYYCNTRWDPYGYDYWGQGTQVTVSS”, “low polyreactivity”.
Under “QVQLVESGGGLVQAGGSLRLSCAASGRIFTGYAMGWYRQAPGKERELVAAISRGGSTNYADSAKGRFTISRDNAKNTVYLQLNSLKPEDTAVYYCAAGVHWDRGDYWGQGTQVTVSS” stands “low polyreactivity”; under “QVQLVESGGGLVQAGGSLRLSCAASGRIFTHNDMGWYRQAPGKERELVAAITSGGRTTYADSVKGRFTISRDNAKNTVYLQMNSLKPEDTAVYYCNADTCLGSLDFDKRDYWGQGTQVTVSS”, “low polyreactivity”; under “QVQLVESGGGLVQAGGSLRLSCAASGRIFTHYAMGWYRQAPGKERELVAAISRTGGTTNYADSVKGRFTISRDNAKNTVYLQMNSLKPEDTADYYCAAVGKGAKDYFKYYSWGQGTQVTVSS”, “high polyreactivity”.
As to “QVQLVESGGGLVQAGGSLRLSCAASGRIFTLYDMGWYIQAPGKERELVAAISNSAGSTYYADSVKGRFTISRDNAKNTVYLQMNSLKPEDTAVYYCAAELWSWWGSRDYWGQGTQVTVSS”, the “polyreactivity (PSR sort gate)” value is “high polyreactivity”.
In the case of “QVQLVESGGGLVQAGGSLRLSCAASGRIFTNNARGWYSQAPGKERELVDAINVSGGRTYYADSVKGRFTISRDNAKNTVYLQMNSLKPEDTAVYYCNKVKETYMDNWGQGTQVTVSS” it was “high polyreactivity”.
Under “QVQLVESGGGLVQAGGSLRLSCAASGRIFTNYAMGWSRQAPGKERELVAAITGVGSTNYADSVKGRFTISRDNEKNTVYLQMNSLKPEDTAVYYCNAEYDYVSYVYTGFAFDYWGQGTQVTVSS” stands “low polyreactivity”; under “QVQLVESGGGLVQAGGSLRLSCAASGRIFTNYAMGWYRQAPGKEREFVAAISWSDGSTYYADSVKGRFTISRDNAKNTVYLQMNSLKPEDTAVYYCATEGTYGTFYSYRHFYYWGQGTQVTVSS”, “high polyreactivity”; under “QVQLVESGGGLVQAGGSLRLSCAASGRIFTPNAMGWYRQAPGKERELVAAISRSGGSTYYADSVKGRFTISRDTAKNTVYLQMKSLKPEDTAVDYCNKLRTPSSGLDYWGQGTQVTVSS”, “high polyreactivity”.
In the case of “QVQLVESGGGLVQAGGSLRLSCAASGRIFTPYAMGWYRQAPGKERELVAVIRDGSTYYADSVKGRFTISRDNAKNTVYLQMNSLKPEDPAVSYCSYDIWVWWSGAYDYWGQGNQVTVSS” it was “low polyreactivity”; in that of “QVQLVESGGGLVQAGGSLRLSCAASGRIFTPYARGWYRQAPGKERELVAAISGRGGSTYYADSVKGRFTISRDNAKNTVYLQMNSLKPEDTAVYYCAATYFYVYDYGLDYWGQGTQVTVSS”, “high polyreactivity”; in that of “QVQLVESGGGLVQAGGSLRLSCAASGRIFTPYVMGWYRQAPGKERELVADINLSGDSTSYADSVKGRFTISRDNAKNTVYLQMNSLKPEDTAVYYCNADSYIYVGNDQYDYWGQGTQVTVSS”, “low polyreactivity”.
Consider “QVQLVESGGGLVQAGGSLRLSCAASGRIFTQYAMGWYRPAPGKERELVAAISSSGVRTYYADSVKGRFTISRDNAKNNVYLQMNSLKPEDTAVYYCAVRRGGAYYQFGYWGQGTQVTVSS”, for which the “polyreactivity (PSR sort gate)” value is on record as “high polyreactivity”.
Under “QVQLVESGGGLVQAGGSLRLSCAASGRIFTRNAMGWYRQAPGKERELVAAISGTGGSTYYADSVKGRFTISRDNAKNTVYLQMNSLKPEDTAVYYCAASRARTRSAYNYWGQGTQVTVSS” stands “high polyreactivity”.
